Measured values from PMC7063449.

Molecular target: bril-ACKR3WT (human) (UniProt P25106)
Test: flow cytometry on cells

bril-ACKR3WT (human), sequence (P25106 2-332): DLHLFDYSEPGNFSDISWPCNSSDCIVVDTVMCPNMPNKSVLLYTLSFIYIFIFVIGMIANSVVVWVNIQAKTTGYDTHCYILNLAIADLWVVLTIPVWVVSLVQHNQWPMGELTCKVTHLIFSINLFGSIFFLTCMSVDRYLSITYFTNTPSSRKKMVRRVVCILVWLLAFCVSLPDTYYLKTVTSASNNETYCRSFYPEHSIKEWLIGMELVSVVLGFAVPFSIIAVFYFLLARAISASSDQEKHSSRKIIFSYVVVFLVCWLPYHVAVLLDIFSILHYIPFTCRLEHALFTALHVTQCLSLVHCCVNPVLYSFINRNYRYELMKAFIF

dissociative half-life: 7.2 min
Substance: HA-tagged CXCL12P2G (from UniProt P48061 22-93) (ligand)
